Data published in patent publication US20050037969A1 (ARBOR VITA, published 2005).
Ends that are not written are not given here. * marks the point of attachment. Biotin = O=C1N[C@H]2[C@H](CS[C@H]2CCCCC(=O)*)N1

Columns and labels:
Assay in all cases: A/G assays
[1] = biological target: T1, GST-LIM protein PDZ domain fusion protein (Human, UniProt Q96HC4 2-85)
T1 construct: also called Human LIM protein; not shown: glutathione S-transferase encoded by vector pGEX-3X (Pharmacia)
T1 sequence: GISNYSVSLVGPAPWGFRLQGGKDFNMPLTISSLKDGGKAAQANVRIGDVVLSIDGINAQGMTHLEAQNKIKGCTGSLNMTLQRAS

[2] = biological target: T2, GST-prIL16 fusion protein (PDZ domains 1-2) (Homo sapiens (Human), UniProt Q14005 1111-1324)
T2 construct: also called putative interleukin 16 precursor; not shown: glutathione S-transferase encoded by vector pGEX-3X (Pharmacia)
T2 sequence: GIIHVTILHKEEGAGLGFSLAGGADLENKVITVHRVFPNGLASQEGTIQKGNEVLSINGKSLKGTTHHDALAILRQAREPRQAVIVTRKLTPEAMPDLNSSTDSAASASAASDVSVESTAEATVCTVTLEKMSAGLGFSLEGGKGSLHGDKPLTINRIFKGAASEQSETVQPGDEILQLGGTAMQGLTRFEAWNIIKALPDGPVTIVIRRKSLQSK

[3] = biological target: T3, GST-cytohesin binding protein PDZ domain fusion protein (Homo sapiens (Human), UniProt O60759 74-165)
T3 construct: also called CBP; not shown: glutathione S-transferase encoded by vector pGEX-3X (Pharmacia)
T3 sequence: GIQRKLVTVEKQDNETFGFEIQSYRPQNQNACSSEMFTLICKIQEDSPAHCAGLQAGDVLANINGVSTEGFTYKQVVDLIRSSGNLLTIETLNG

[4] = biological target: T4, GST-AF6 PDZ domain fusion protein (Homo sapiens (Human), UniProt P55196 1001-1093)
T4 construct: also called af-6 protein; not shown: glutathione S-transferase encoded by vector pGEX-3X (Pharmacia)
T4 sequence: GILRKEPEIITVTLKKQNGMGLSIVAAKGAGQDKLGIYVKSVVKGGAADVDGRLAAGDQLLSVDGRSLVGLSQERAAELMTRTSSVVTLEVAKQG

[5] = biological target: T5, GST-DLG5 (p-dlg) PDZ domain fusion protein (Human, UniProt Q8TDM6 1343-1583)
T5 construct: also called Human discs large protein p-dlg; not shown: glutathione S-transferase encoded by vector pGEX-3X (Pharmacia)
T5 sequence: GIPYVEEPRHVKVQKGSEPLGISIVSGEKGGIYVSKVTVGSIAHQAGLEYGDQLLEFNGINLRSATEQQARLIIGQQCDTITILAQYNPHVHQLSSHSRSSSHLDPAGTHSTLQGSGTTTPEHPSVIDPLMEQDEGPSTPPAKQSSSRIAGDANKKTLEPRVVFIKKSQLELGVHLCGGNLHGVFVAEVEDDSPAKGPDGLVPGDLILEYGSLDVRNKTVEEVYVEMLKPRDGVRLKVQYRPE

[6] = biological target: T6, GST-TIAM1 PDZ domain fusion protein (Homo sapiens (Human), UniProt Q13009 845-931)
T6 construct: also called TLAM1; T-lymphoma invasion and metastasis inducing protein 1; not shown: glutathione S-transferase encoded by vector pGEX-3X (Pharmacia)

[7] = biological target: T7, GST-DVL1 PDZ domain fusion protein (human, UniProt O14640 247-339)
T7 construct: also called human dishevelled segment polarity protein homolog; not shown: glutathione S-transferase encoded by vector pGEX-3X (Pharmacia)
T7 sequence: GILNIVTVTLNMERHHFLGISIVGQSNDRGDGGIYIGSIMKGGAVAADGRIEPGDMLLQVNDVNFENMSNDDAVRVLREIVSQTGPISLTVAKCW

[8] = biological target: T8, GST-KIAA0303 PDZ domain fusion protein (Homo sapiens (Human), UniProt O15021 1138-1228)
T8 construct: also called K303; not shown: glutathione S-transferase encoded by vector pGEX-3X (Pharmacia)
T8 sequence: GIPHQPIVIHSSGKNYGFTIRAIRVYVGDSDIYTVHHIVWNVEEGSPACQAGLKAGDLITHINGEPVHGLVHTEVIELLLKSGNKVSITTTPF

[9] = biological target: T9, TAX-IP33 PDZ-GST fusion protein (Homo sapiens (Human), UniProt O14910 103-193)
T9 construct: Order of GST and PDZ part and limits not seen in the excerpts
T9 sequence: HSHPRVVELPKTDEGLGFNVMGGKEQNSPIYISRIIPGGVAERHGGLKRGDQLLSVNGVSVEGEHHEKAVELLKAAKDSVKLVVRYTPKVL

[10] = biological target: T10, MINT3 PDZ-GST fusion protein
T10 construct: Order of GST and PDZ part and limits not seen in the excerpts
T10 chain: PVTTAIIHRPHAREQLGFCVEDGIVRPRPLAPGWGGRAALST

[11] = biological target: T11, PICK1 PDZ-GST fusion protein (Bos taurus (Bovine), UniProt Q2T9M1 17-105)
T11 construct: Order of GST and PDZ part and limits not seen in the excerpts

[12] = biological target: T12, K858 PDZ-GST fusion protein (Homo sapiens (Human), UniProt Q8WWI1 1038-1131)
T12 construct: Order of GST and PDZ part and limits not seen in the excerpts
T12 sequence: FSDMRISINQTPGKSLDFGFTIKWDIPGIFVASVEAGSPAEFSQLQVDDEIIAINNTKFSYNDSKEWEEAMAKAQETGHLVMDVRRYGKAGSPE

[13] = biological target: T13, SP short PDZ-GST fusion protein (Homo sapiens (Human), UniProt O43464 350-435)
T13 construct: The label SP short is not explained in the excerpts
T13 sequence: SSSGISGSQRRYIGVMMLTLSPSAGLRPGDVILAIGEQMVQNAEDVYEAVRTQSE

[14] = biological target: T14, NSP PDZ-GST fusion protein (Homo sapiens (Human), UniProt Q92743 370-466)
T14 construct: The label NSP is not explained in the excerpts

[15] = biological target: T15, GEF PDZ-GST fusion protein (Homo sapiens (Human), UniProt Q8TEU7 293-400)
T15 construct: The label GEF is not explained in the excerpts
T15 sequence: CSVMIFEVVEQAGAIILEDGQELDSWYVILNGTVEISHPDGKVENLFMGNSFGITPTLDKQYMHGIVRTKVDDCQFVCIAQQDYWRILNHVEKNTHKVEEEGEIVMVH

[16] = biological target: T16, K316 PDZ-GST fusion protein (Homo sapiens (Human), UniProt Q14CM0 72-159)
T16 construct: Order of GST and PDZ part and limits not seen in the excerpts

Measured: binding result

T11 sequence (Q2T9M1 other isoform, or with tags, fused parts or gaps limits assumed): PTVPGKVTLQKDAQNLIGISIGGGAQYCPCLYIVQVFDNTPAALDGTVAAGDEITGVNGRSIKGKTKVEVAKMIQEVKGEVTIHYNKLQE
T6 sequence (Q13009 other isoform, or with tags, fused parts or gaps): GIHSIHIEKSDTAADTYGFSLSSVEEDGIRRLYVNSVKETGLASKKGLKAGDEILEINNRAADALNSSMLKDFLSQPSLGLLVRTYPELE
T14 sequence (Q92743 other isoform, or with tags, fused parts or gaps limits assumed): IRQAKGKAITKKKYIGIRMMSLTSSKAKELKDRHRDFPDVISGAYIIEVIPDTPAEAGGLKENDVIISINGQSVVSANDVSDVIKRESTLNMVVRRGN
T16 sequence (Q14CM0 72-159 limits assumed): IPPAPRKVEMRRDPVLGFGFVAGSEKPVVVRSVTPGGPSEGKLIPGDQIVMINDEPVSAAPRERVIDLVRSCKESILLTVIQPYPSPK

B1: PAG C-terminal peptide AA58L, biotinylated (peptide)
peptide: Biotin-KENDYESISDLQQGRDITRL
notes: also called Phosphoprotein Associated with GEMs
not listed: [16]
no binding: all other assays above

B2: CDw137 (4-1BB ILA) C-terminal peptide AA21L (peptide)
peptide: Biotin-QEEDGCSCRFPEEEEGGCEL
modifications: cysteine pairing not given here
notes: Marked (S), sticky peptide with high background; also called CDw137 (4-1BB ILA) (S)
not listed: [9] | [11] | [13] | [14] | [15] | [16]
no binding: all other assays above

B3: V-gated Ca2+ channel C-terminal peptide AA46L (peptide)
peptide: Biotin-SSGGRARHSYHHPDQDHWC
notes: Marked (S), sticky peptide with high background; also called V-gated Ca2+ channel (S)
not listed: [9] | [11] | [13] | [14] | [15] | [16]
no binding: all other assays above

B4: Spectrin (beta) C-terminal peptide AA32L, biotinylated (peptide)
peptide: Biotin-SFPPCGHRENVPGQSLVSFV
notes: Marked (S), sticky; also called Spectrin beta (S); Spectrin β
no binding: [1] | [2] | [6] | [7] | [11] | [12] | [13]

Biotin-AWDDSARAAGGQGLHVTAL [LPAP C-terminal peptide AA30L, biotinylated]
not listed: [16]
no binding: all other assays above

Biotin-TREDIYVNYPTFSRRPKTRV [DNAM-1 C-terminal peptide AA22L, biotinylated]
not listed: [1] | [4]
no binding: all other assays above
